Experimental data reported in patent publication US20240343803A1 (SHANDONG SIMCERE BIOPHARMACEUTICAL, published 2024).
Changes are numbered by the printed parent chain.

B1: TIGIT-070-H1L1 (antibody, V domains shown)
VH: EVQLVQSGAEVKKPGASVKVSCKASGYTFTNYYMHWVRQAPGQRLEWMGRIDPDSGGSKYNEKFKSRVTITVDKSASTAYMELSSLRSEDTAVYYCAREGHYGFYSDYWGQGTTVTVSS
VL: DIQMTQSPSSLSASVGDRVTITCRVSENIYSYLAWYQQKPGKSPKLLIYNAKTLAEGVPSRFSGSGSGTDFTLTISSLQPEDFATYYCQHHYGNPLTFGPGTKVDIK
notes: Humanized anti-TIGIT antibody
B2: TIGIT-002-H4L3 (antibody, V domains shown)
VH: EVQLQESGPGLVKPSETLSLTCAVSGYSITSDSWNWIRQPPGKKLEYIGYISYSGNTYYNPSLKSRVTISRDTSKNQFSLKLSSVTAADTAVYYCARLDFSNYGGAVDYWGQGTTVTVSS
VL: DIVMTQSPDSLAVSLGERATINCKASQNVRTAVAWYQQKPGQSPKLMIYSASYRYTGVPDRFSGSGSGTDFTLTISSLQAEDVAVYYCQQYYTTPWTFGGGTKVEIK
notes: Humanized anti-TIGIT antibody
B3: TIGIT-006-H5L3 (antibody, V domains shown)
VH: B2 VH with I29M, S33Y, N56R, L98G, F100Y, V107M, D108Y, Y109D
VL: DIVMTQSPDSLAVSLGERATINCRASQGVSTTIAWYQQKPGQSPKLLIYSASYRYTGVPRFSGSGSGTDFTLTISSLQAEDVAVYYCQQYYSSPFTFGGGTKVEIK
notes: Humanized anti-TIGIT antibody
B4: TIGIT-005-H2L1d (antibody, V domains shown)
VH: EVQLVQSGAEVKKPGASVKVSCKASGYAFTNYLIEWVRQAPGQRLEWMGVINPGSGGTNYKEKFKGRVTITADKSSSTAYMELSSLRSEDTAVYYCARGEYFFFDYWGQGTTVTVSS
VL: B2 VL with N28H, R30S, T31N, Q38H, M47L, Y91H, T93N, W96H
notes: Humanized anti-TIGIT antibody with NG-site mutation in VL
B5: PVRIG-A50 (Fc fusion)
chain: EVQLVESGGGLVQPGGSLRLSCAASGFTFSYYDMSWVRQAPGKGLEWVSTINSNGGRTSYVDSVKGRFTISRDNTKNTLYLQMNSLKPEDTAVYYCVEGDPHNFGLENLSLRDFGSWGQGTQVTVSS
notes: heavy chain antibody VHH-hinge-CH2-CH3, human IgG1 constant part; also called PVRIG-50; not shown: human IgG1 hinge-CH2-CH3
B6: PVRIG-A118 (Fc fusion)
chain: QVQLVESGGGLVQAGGSLRLSCAASETYFDLYVMGWYRQAPGKDRELVATITYTGSIKIVDSVKDRFTISRGDAKNTVSLQMSSLKPEDTAVYFCNADPSGLGRKVYWGQGTQVTVSS
notes: heavy chain antibody VHH-hinge-CH2-CH3, human IgG1 constant part; not shown: human IgG1 hinge-CH2-CH3
B7: PVRIG-A105 (Fc fusion)
chain: EVQLVESGGGLVQAGGSLRLSCAASGRTFDRHTMTWFRQAPGKEREFVATASRIPGDTYYSHSVKGRFTISRDNAKNTVYLQLNNLKPEDTAVYYCAATSAYCSEVDCYEKGSWYDNWGQGIQVTVSS
notes: as for B6

biological target: T1, Full-length cynomolgus monkey TIGIT on CHO-K1 cells (CHO-K1 cynomolgus monkey TIGIT) (cynomolgus monkey); assay: FACS; CHO-K1 cynomolgus monkey TIGIT
T1 construct: NCBI XP_015300911.1
Method in brief: (§1)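 Flow cytometry was used to measure antibody binding to CHO-K1 cells carrying full-length human or cynomolgus monkey TIGIT. Antibodies were serially diluted 3-fold across 12 points from 80 nM, then combined 1:1 with cells held at 2×10⁵/50 μL in 1% BSA-PBS and kept at 4° C for 60 min.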

T1 sequence (chain, as listed by the source limits assumed): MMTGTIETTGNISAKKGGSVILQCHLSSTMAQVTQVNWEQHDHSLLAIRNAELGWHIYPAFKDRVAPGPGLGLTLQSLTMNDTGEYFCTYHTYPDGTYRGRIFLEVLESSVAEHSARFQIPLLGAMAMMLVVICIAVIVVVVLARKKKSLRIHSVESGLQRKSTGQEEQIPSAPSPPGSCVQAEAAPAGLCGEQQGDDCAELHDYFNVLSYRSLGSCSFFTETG

Q: For B1, which EC50 is on record?
A: 1.05 nM

Q: B2 was tested. Which EC50 did it give?
A: 0.723 nM

Q: For B3, which EC50 is on record?
A: 0.922 nM

Q: With B4 as the binder, how does the EC50 read?
A: 0.631 nM

biological target: T2, Full-length human TIGIT on CHO-K1 cells (CHO-K1 human TIGIT) (human, UniProt Q495A1 22-244); assay: FACS; CHO-K1 human TIGIT high expression strain
T2 construct: NCBI XP_024309156.1; the entry includes the signal peptide (limits not recoverable); The strain (high, medium, low) is named under assay; also called high expression strain 1D2; medium expression strain 2D10
T2 sequence: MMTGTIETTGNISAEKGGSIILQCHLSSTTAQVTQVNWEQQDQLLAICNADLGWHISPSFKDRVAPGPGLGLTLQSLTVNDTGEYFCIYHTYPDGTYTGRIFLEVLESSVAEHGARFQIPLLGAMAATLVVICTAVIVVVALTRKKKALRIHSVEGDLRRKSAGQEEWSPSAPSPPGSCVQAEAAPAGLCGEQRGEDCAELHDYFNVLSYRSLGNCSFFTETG
Method in brief: as §1

Q: How did the EC50 turn out when B1 was run?
A: 0.494 nM

Q: B2 was tested. Which EC50 did it give?
A: 0.297 nM

Q: With B3 as the binder, how does the EC50 read?
A: 0.443 nM

Q: How did the EC50 turn out when B4 was run?
A: 0.321 nM

biological target: T2, Full-length human TIGIT on CHO-K1 cells …; assay: FACS; CHO-K1 human TIGIT medium expression strain
Method in brief: as §1

Q: Which EC50 does the source give for B1 here?
A: 0.45 nM

Q: For B2, which EC50 is on record?
A: 0.228 nM

Q: With B3 as the binder, how does the EC50 read?
A: 0.396 nM

Q: For B4, which EC50 is on record?
A: 0.285 nM

biological target: T2, Full-length human TIGIT on CHO-K1 cells …; assay: cell binding, CHO-K1 human TIGIT high expression strain
Method in brief: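 Binding was measured by flow cytometry after a 60-minute, 4° C incubation of the antibodies with 2×10⁵ CHO-K1 cells displaying full-length human or cynomolgus monkey TIGIT. Antibody titration: 12 points, threefold serial dilution from 80 nM, in 1% BSA-PBS.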

Q: How did the EC50 turn out when B1 was run?
A: 0.026 nM

Q: For B2, which EC50 is on record?
A: 0.0249 nM

Q: For B3, which EC50 is on record?
A: 0.022 nM

Q: For B4, which EC50 is on record?
A: 0.0439 nM

Biological target: T3, Fusion protein of extracellular domain of human TIGIT and mouse IgG2a Fc fragment (human TIGIT ECD-mFc) (human)
T3 construct: The entry includes the signal peptide (limits not recoverable) and the mouse IgG2a Fc
T3 chain: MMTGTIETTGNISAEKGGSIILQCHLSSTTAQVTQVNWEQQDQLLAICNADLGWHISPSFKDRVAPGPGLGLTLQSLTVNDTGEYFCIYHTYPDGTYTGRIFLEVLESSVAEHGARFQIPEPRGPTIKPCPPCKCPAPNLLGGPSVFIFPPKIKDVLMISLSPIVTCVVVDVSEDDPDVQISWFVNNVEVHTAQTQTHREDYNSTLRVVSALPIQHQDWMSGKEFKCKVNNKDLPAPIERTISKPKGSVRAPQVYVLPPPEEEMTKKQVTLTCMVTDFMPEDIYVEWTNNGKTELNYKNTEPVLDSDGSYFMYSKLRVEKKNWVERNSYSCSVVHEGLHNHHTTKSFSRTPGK
Assay: FACS; blocking of TIGIT ECD-mFc binding to CHO-K1 CD155 cells

Q: B1 was tested. Which IC50 did it give?
A: 0.456 nM

Q: How did the IC50 turn out when B2 was run?
A: 0.492 nM

Q: For B3, which IC50 is on record?
A: 0.458 nM

Q: How did the IC50 turn out when B4 was run?
A: 0.467 nM

biological target: T4, human PVRIG-mFc protein (Acro, PVG-H5253) (human, UniProt Q6DKI7 41-171, limits assumed); assay: FACS competition, PVRIG-mFc binding to CHO-K1-CD112 cells, competitor CD112 on cells
T4 construct: bought protein
T4 sequence (looked up): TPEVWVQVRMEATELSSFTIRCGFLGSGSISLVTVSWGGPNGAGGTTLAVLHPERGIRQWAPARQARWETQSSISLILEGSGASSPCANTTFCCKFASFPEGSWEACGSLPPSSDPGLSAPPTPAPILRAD

Q: With B5 as the binder, how does the “% AUC to COM701-hIgG4” value read?
A: 104%

Q: And the “% AUC to SRF813-hIgG1” value?
A: 81%

Q: And the “% IC50 to COM701-hIgG4” value?
A: 99.1%

Q: What about the “% IC50 to SRF813-hIgG1” value of the same binder?
A: 91.8%

Q: For B6, which “% AUC to COM701-hIgG4” value is on record?
A: 110%

Q: What about the “% AUC to SRF813-hIgG1” value of the same binder?
A: 75.6%

Q: And the “% IC50 to COM701-hIgG4” value?
A: 111%

Q: And the “% IC50 to SRF813-hIgG1” value?
A: 97.4%

Q: What does the source list for B7?
A: % AUC to COM701-hIgG4: 115%; % AUC to SRF813-hIgG1: 84.1%; % IC50 to COM701-hIgG4: 99.7%; % IC50 to SRF813-hIgG1: 97.7%
